Values of other authors in article PMC7456198.
Like-named read-outs stand apart in the source and are kept apart here.

Experiments:
[1] = target: GLP-1 receptor (Homo sapiens) (UniProt P43220)
[2] = target: GLP-1 receptor (Homo sapiens) (UniProt P43220); remark: listed apart in the source

Sequence of UniProt P43220 (P43220 24-463): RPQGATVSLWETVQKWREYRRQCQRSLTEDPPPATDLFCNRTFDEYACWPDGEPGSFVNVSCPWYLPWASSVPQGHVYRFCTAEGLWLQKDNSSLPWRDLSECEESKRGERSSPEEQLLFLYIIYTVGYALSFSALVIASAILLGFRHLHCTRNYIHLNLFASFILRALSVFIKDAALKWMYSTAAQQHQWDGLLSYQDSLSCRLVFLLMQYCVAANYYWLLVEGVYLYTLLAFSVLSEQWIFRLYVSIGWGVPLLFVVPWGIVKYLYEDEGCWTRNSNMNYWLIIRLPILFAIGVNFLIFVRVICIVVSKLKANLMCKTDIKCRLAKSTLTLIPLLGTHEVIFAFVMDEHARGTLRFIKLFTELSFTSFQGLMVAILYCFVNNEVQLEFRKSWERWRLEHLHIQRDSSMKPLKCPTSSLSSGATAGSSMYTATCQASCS

| Kd [1] [nM] | Kd [2] [nM] | Substance |
| --- | --- | --- |
| 0.11 |  | Liraglutide (from UniProt P01275) |
|  | 0.38 | Semaglutide (from UniProt P01275) |
